In article PMC314469, “Protein Interaction Networks by Proteome Peptide Scanning” (PLoS Biology, 2004):

T1: Boi1 SH3 (BOI1_YEAST), P38041
T1 chain: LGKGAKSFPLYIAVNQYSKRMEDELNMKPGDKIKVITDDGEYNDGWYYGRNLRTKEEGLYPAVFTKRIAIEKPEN

T2: Boi2 SH3 (BOI2_YEAST), P39969
T2 chain: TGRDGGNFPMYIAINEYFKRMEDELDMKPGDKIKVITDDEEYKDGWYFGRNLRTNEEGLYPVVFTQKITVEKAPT

T3: Rvs167 SH3 (RV167_YEAST), P39743
T3 chain: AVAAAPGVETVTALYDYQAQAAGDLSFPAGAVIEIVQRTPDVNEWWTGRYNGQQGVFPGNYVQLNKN

T4: Yfr024 SH3 (LSB3_YEAST), P43603
T4 chain: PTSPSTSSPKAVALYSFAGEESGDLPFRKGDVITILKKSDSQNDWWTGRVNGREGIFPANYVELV

T5: Yhr016c SH3 (YSC84_YEAST), P32793
T5 chain: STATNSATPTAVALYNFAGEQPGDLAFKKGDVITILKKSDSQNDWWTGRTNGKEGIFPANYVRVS


Assays:
Assay in all cases: SPOT array
[1] = target: T1, Boi1 SH3 (BOI1_YEAST), P38041
[2] = target: T2, Boi2 SH3 (BOI2_YEAST), P39969
[3] = target: T3, Rvs167 SH3 (RV167_YEAST), P39743
[4] = target: T4, Yfr024 SH3 (LSB3_YEAST), P43603
[5] = target: T5, Yhr016c SH3 (YSC84_YEAST), P32793

Row | Binder | normalised SPOT signal, Boehringer light units (BLU); mean over the file's lines of this peptide [1] | normalised SPOT signal, Boehringer light units (BLU); mean over the file's lines of this peptide [2] | normalised SPOT signal, Boehringer light units (BLU); mean over the file's lines of this peptide [3] | normalised SPOT signal, Boehringer light units (BLU); mean over the file's lines of this peptide [4] | normalised SPOT signal, Boehringer light units (BLU); mean over the file's lines of this peptide [5]
1 | ELDPISPLKVPLTA [YGR166W 276-289] | 56.8 | 46 | 39.4 | 42.4 | 160
2 | EKGPRMPSRGRPRP [YPR171W 144-157] | 394 | 161 | 72.6 | 5120 | 1840
3 | EKFPKLPHKLVHML [YKR024C 336-349] | 56.5 | 83.5 | 32.9 | 7910 | 139
4 | ELPPIKPPRPTSTT [YBL007C 619-632] | 54.9 | 90.2 | 1900 | 57000 | 43100
5 | EGKPLFPGKDHVHQ [YLR113W 212-225] | 89.1 | 11 | 38.5 | 5.2 | 91.1
6 | EKLPETPDRSKSAS [YLR343W 379-392] | 69.3 | 69.2 | 67.1 | 12200 | 5560
7 | EFIPPDPTKVTEFE [YNL025C 151-164] | 98 | 39.5 | 16.4 | 26.8 | 53.3
8 | EILPVKPTKKSSKK [YCL014W 808-821] | 364 | 21.3 | 63.9 | 2720 | 34.7
9 | EHKPVSPDKIGTFT [YDR443C 81-94] | 58.8 | 21.4 | 59.1 | 60.4 | 181
10 | EILPQAPAKKVFES [YDR444W 379-392] | 34.7 | 21.5 | 65.2 | 244 | 12.5
11 | ELLPVVPEKFLIAS [YOR273C 415-428] | 90.2 | 13.5 | 15.1 | 13.7 | 149
12 | EIAPLIPKKPALRK [YDR080W 597-610] | 110 | 90.8 | 80 | 5120 | 0
13 | EKLPAIPRKFIVTE [YMR296C 278-291] | 26.8 | 17.5 | 41.4 | 667 | 208
14 | EIPPPLPPKIMVHS [YIL156W 528-541] | 121 | 15.5 | 135 | 41400 | 14500
15 | ELPPTHPIRLGLAL [YDR099W 164-177] | 77.1 | 46.1 | 24.8 | 179 | 203
16 | EIAPSLPSRNSIPA [YCR088W 471-484] | 92.9 | 51.6 | 18700 | 35400 | 40900
17 | ELEPQHPLRHKSSL [YER027C 53-66] | 65.2 | 60 | 38.4 | 109 | 333
